Data reported in the nanobody polyreactivity screen of Harvey et al. (2022).

Assay: yeast display, Sf9 membrane polyspecificity reagent, FACS + sequencing; frameworks hold sequencing errors
How it was run: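 Polyreactivity labels are assigned by the sorting gate from which each nanobody was recovered. The gates were low and high (top ~1%), set on anti-HA fluorescence for expression and streptavidin fluorescence for reagent binding. Before sorting, galactose-induced (36–48 hours) yeast display cells were stained for 1 hour at 4 °C with 10% biotinylated, detergent-solubilized Sf9 membrane reagent.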

Row | Sequence | polyreactivity (PSR sort gate)
1 | QVQLVESVGGLVQAGGSLRLSCAASGSTFYFNAMGWYRQAPGKERELVAAIDWSGGSTYYADSVKGRFTISRDNAKNTVYLQMNSLKPEDTAVYYCAAPYHYYGNTVGYADYDYWGQGTQVTVSS | low polyreactivity
2 | QVQLVESGGGLVQAGGTLRLSCAASGRTLGANALGWYRQAPGKERELVAAITQSGSSTYYADSVKGRFTISRDNAKNTVYLQMNSLKPEDTAVYYCAAEWNVVLAGAVYFRYNYWGQGTQVNVSS | low polyreactivity
3 | QVQLVESGGGLVQAGGSLRLSCAASGSTFERNTMGWYRQAPGKERELVASISRGDGTYADSVKGRFTISRDNAKNTVYLQMNSLKPEDTAVYYCAAVQRESGSDYDYWGQGTQVTVSS | low polyreactivity
4 | QVQLVESGGGLVQAGGSLRLSCAASGRTFYSNAMGWYRQAPGKERELVAAISSSGSSTSYADSVKGRFTMSRDNAKNTVYLQMNSLKPEDTAVYYCAVRTKRRANRDYWGQGTQVTVSS | high polyreactivity
5 | QVQLVESGGGLVQAGGSLRLSCAASGFTFNSYAMGWYRQAPGKERELVAAITSSGGLTYYADSVKGRFTISRDNAKNTVYLQKNSLKPEDTAVYYCAARPGGKVATIYDYWGQGTQVTVSS | low polyreactivity
6 | QVQLVESGGGLVQAGGSLRLSCAASGRTFQKNTMGWYRQAPGKERELVAAIDYSATTTYYADSVKGRFTSSRDNAKNTVYLQMNSLKPEDTAVYYCAARWSYPRWEFDYWGQGTQVTVSS | high polyreactivity
7 | QVQLVESGGGLVQAGGSLRLSCAASGITFPDYAMGWYRQAPGKERELVAAISRGVNTYYADSVKGRFTISRDNAKNTVYLQMNSLKPEDTAVYYCNRRGSSGYDYWGQGSQVTVSS | low polyreactivity
8 | QVQLVESGGGLVKAGGSLRLSCAASGRIFYTNDMGWYSQAPGKERELVATISSTGSTNYADSVKGRFTISRDNAKNTVYLEMNSLKPEDTAVYYCAADRSYFLRCIIYDYWGQGTQVTVSS | low polyreactivity
9 | KVQHVESGGGLVQAGGSLRLSCAASGLTFYTNAMGWYRQPPGKESEFVADITTSGGDTYYADSVKGRFTISRDNAKNTVYLQMNSLKPEDTAVYYCGEFWSYWGYGQYDYWGQGTQVTVSS | low polyreactivity
10 | QVQLVESGGGLLQAGGSLRLSCAASGSNFDRYGRGWYRQAPGTERELVADITSDGSTNYADSVKGRFTISRDNAKNTVYLQMNSLKPEDTAVYYCAVSYTAYSVGYDYWGQGTQVTVSS | low polyreactivity
11 | QVQLVESGGGLVQAGGSLRLSCAASGFIIDRYAMGWYRQAPGKERELVARISWSGGSTYYADSVKGRFTISRDNAKNTVYLQMNSLKPEDTAVYYCNKAAWWLQSRYDYWGQGTQVTVSS | high polyreactivity
12 | QVQLVESGGGLVQAGGSLRLSCAASGSIFADNAMGWDRQAPGKERELVAAISRTGGSTYYADSVKGRFTISRDNSKNTVYLQMNSLKPEDTAVYYCAADNGYGRYRRYYYWGQGTQVTVSS | high polyreactivity
13 | QVQLVESGGGLVQAGGSLRLSCAASGYTFYPYAMGWYRQAPGKERELVAAISYSGGRTYYADSVKGRFTISRDNAKNTVYLQMNSLKPEDTAVYYCAADSGRYRMYYWGQGTQVTVSS | high polyreactivity
14 | QVQLVESGGGLVQAGGSLRLSCAASGRTFYYYTMGWYRQPPRKEREFVAAISWSGGSKYYADSVKGRFTISRDNAKNTVYLQMNSLIPEDTAVYYCNARSFATGSKVPARGYWVQGTQVTVSS | high polyreactivity
15 | QVQLVESGAGLVQAGGSLRLSCASSGYIFDWYAMGWYRQAHGKERELGAAISGRGGSTYYADSVKGRFTISRDNSKNTVYLQMYSLKPEYTAVYYCNAALSPWGYNYWGQGTQVTVSS | high polyreactivity
16 | QVQLVESGGGLVQAGGSLRLSCAASGVTFDAYVMGWYRQAPRKERELVAGIYSGGSTYYADSVKGRFTISRDNAKNTVYLQMNSLKPEDTAVYYCARENYRFAHEPPVSRQIPYDYWGQGTQVTVSS | low polyreactivity
17 | QVQLVESGGGLVQAGGSLRLSCAASGSTFGYYAMGWSRQAPGKERELVAVITYSGGSTYYADSVKGRFTISRDNAKNTVYLQMNSLKPEDTAVYYCAAVIGVWYYYTYDYWGQGTQVTVSS | low polyreactivity
18 | QVQLVESGGGLVQAGGSLRLTSAGSGRIFDYNAMGCYRQAPGKERELVAAITYSGGSTYYADSVKGRFTISRDNAKNTVYLQMNSLKPEDTAVYYCAAPDPYYHYRYPWQSRYDYNYWGQGTQVTVSS | low polyreactivity
19 | QVQLVESGGGLVHAGGSLLLSCAASRFIFASNAMGWYRKAPAKERELVAAISSSGGRTYYADSVKGRFTISRDNAKNSVYLQMNSLKPEDTAVYYCAADWLVTYDYWGQGTQVTVSS | high polyreactivity
20 | QVQLVESGGGLVQAGGSLRLSCAASGRIFKIYAMGWYRQAPGKEREFVATISSGGRTNYADSVKGRFTISRDNAKNTVYLQMNSLKPEDTAVYYCNAGARVLYETESFDYWGQGIQVTVSS | low polyreactivity
21 | QVQLVESGGGLVQAGGRLRLSCAASGRIFGYYAIGWYRQAPGKERELVARISRGGSTYYADSVKGRFTISRDNAKNTVYLQMNSLKPEETAVYSCAATRSGYTSYTDDSGGQGTQVTVSS | high polyreactivity
